In article PMC5687603:

B1: short-form Klotho (Skl): Skl3N (protein)
parent chain: MLARAPPRRPPRLVLLRLLLLHLLLLALRARCLSAEPGQGAQTWARFARAPAPEAAGLLHDTFPDGFLWAVGSAAYQTEGGWRQHGKGASIWDTFTHHSGAAPSDSPIVVAPSGAPSPPLSSTGDVASDSYNNVYRDTEGLRELGVTHYRFSISWARVLPNGTAGTPNREGLRYYRRLLERLRELGVQPVVTLYHWDLPQRLQDTYGGWANRALADHFRDYAELCFRHFGGQVKYWITIDNPYVVAWHGYATGRLAPGVRGSSRLGYLVAHNLLLAHAKVWHLYNTSFRPTQGGRVSIALSSHWINPRRMTDYNIRECQKSLDFVLGWFAKPIFIDGDYPESMKNNLSSLLPDFTESEKRLIRGTADFFALSFGPTLSFQLLDPNMKFRQLESPNLRQLLSWIDLEYNHPPIFIVENGWFVSGTTKRDDAKYMYYLKKFIMETLKAIRLDGVDVIGYTAWSLMDGFEWHRGYSIRRGLFYVDFLSQDKELLPKSSALFYQKLIEDNGFPPLPENQPLEGTFPCDFAWGVVDNYVQVSPLTKPSVGLLLPH
B2: short-form Klotho (Skl): SklN285A (protein)
parent chain: B1 parent chain

Tests used:
[1] = GSH/GSSG-Glo luminescence assay; details: glycan lost; control: Skl (wild type)
[2] = DHE staining, flow cytometry, HEK293; details: glycan lost; control: Skl (wild type)

Protein	other: antioxidant activity (raising of GSH/GSSG ratio) [1]	other: antioxidant activity (lowering of intracellular O2-) [2]
B1	abolishes	decreases
B2	abolishes	
